Experimental data as given in US20240317862A1 (AMPSOURCE BIOPHARMA SHANGHAI, published 2024).
Changes are numbered by the printed parent chain. Each block holds one binder with its values, some of them ahead of it.

Assays:
[1] = target: T1, human B7-H3 on tumor cells (Hs578T, MDA-MB-436, MDA-MB-468, MDA-MB-231, MDA-MB-453, HT-29) (human, UniProt Q5ZPR3 29-534); assay: flow cytometry, MFI titration on MDA-MB-436 cells
T1 construct: whole, on cells; also called target cells
T1 sequence (looked up): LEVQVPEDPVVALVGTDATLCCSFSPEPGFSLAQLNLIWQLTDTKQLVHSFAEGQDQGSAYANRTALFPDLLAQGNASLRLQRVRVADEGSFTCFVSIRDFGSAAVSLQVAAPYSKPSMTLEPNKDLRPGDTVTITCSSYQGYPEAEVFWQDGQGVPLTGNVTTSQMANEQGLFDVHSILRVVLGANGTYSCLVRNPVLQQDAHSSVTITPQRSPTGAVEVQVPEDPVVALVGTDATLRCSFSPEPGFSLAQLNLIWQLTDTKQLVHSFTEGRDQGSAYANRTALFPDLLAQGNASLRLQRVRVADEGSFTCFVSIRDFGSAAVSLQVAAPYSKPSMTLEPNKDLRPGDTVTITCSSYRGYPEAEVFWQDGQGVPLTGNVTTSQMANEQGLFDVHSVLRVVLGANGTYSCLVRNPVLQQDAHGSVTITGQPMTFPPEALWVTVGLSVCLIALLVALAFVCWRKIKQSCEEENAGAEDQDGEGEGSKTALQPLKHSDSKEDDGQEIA
Protocol: (§1) The collected cells were resuspended with 1% PBSB to adjust the cell density to 2×10⁶ cells/ml, placed in 96-well plates 100 μL (2×10⁵ cells) per well, and blocked for 0.5 hours at 4° C. The blocked cells were centrifuged to discard the supernatant, and a series of diluted antibodies mAb152 and mAb272 were added to the cells. The cells were incubated for 1 hour at 4° C., then centrifuged to discard the supernatant, and washed three times with a PBS solution with 1% BSA (PBSB). Diluted AF64-labeled goat anti-human IgG antibodies (Jackson, Cat. No. 109-605-088) were added to the cells, and the cells were incubated for 1 hour at 4° C. in the dark. The obtained cells were centrifuged to discard the supernatant and then washed twice with 1% PBSB, and cells in each well were resuspended with 100 μL of 1% paraformaldehyde (PF). The signal intensity was detected by flow cytometry. The analysis was performed with the mean fluorescence intensity (MFI) as the Y-axis and the antibody concentration as the X-axis through the software GraphPad Prism 7 to calculate the Kd values for the binding of the murine monoclonal antibodies to the tumor cells.

[2] = target: T1, human B7-H3 on tumor cells (Hs578T, …); assay: flow cytometry, MFI titration on MDA-MB-231 cells
Protocol: as §1

[3] = target: T1, human B7-H3 on tumor cells (Hs578T, …); assay: flow cytometry, MFI titration on Hs578T cells
Protocol: as §1

[4] = target: T1, human B7-H3 on tumor cells (Hs578T, …); assay: flow cytometry, MFI titration on MDA-MB-453 cells
Protocol: as §1

[5] = target: T2, human B7-H3 (purchased from Acro Biosystems) (human, UniProt Q5ZPR3 29-461, limits assumed); assay: ELISA, plate coated with 0.1 µg/mL human B7-H3, HRP goat anti-mouse IgG detection
T2 construct: Bought protein coated on ELISA plates; also called human B7-H3 antigen; human B7-H3 molecules
T2 sequence (looked up): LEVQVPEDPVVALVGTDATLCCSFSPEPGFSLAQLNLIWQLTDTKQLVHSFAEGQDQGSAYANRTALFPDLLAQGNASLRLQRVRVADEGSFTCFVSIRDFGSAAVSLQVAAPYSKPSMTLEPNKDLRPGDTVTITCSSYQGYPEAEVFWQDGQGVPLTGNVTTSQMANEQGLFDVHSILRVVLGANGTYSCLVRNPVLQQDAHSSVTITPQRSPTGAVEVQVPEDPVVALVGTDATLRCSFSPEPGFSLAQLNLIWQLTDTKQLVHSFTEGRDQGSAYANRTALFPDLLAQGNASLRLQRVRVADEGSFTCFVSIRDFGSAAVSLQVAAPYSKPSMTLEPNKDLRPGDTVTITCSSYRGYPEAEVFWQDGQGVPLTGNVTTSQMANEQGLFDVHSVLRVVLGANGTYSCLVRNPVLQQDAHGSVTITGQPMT
Protocol: Plates were coated with 100 μL of 0.1 μg/mL human B7-H3 (purchased from Acro Biosystems) at room temperature overnight. The coating solution was discarded, and the wells were blocked for 0.5 hours with skimmed milk dissolved in phosphate buffered saline (PBS) and washed with PBS containing 0.05% Tween-20 (PBST). The murine antibodies mAb152 and mAb272 against human B7-H3 to be tested were then diluted to appropriate concentrations, added to plates, 50 μL per well, and incubated at room temperature for 1 hour. The wells were washed with 0.05% PBST, and then 50 μL of HRP-labeled goat anti-mouse IgG polyclonal antibodies (purchased from Jackson Laboratory) was added to each well as the detection antibody and incubated at 37° C. for 1 hour. The cells were washed three times with 0.05% PBST, TMB was added to the plates, 100 μL/well, and color development was performed at room temperature for 5 min. 0.2 M H₂SO₄ was added, 50 μL/well, to stop the color development reaction. The light absorbance values at 450 nm/620 nm were measured by a microplate reader. A graph was drawn by software GraphPad Prism 7 with the absorbance as the Y-axis and the antibody concentration as the X-axis.

His-labeled human B7-H3 = target: T3, His-labeled human B7-H3 (human, UniProt Q5ZPR3 29-461); assay: BLI (ForteBio Octet), His-labeled human B7-H3 on Ni-NTA sensor, antibody 3.125-100 nM
T3 construct: Coupled to a Ni-NTA sensor in BLI; also called antigen B7-H3; not shown: His label
T3 sequence (looked up): T2 sequence (looked up)
Protocol: The binding affinity constants of the purified murine monoclonal antibodies to the antigen B7-H3 were determined by bio-layer interferometry (BLI) with a ForteBio Octet RED&QK system from PALL Corporation.

[6] = target: T4, murine B7-H3 protein (Sino Biological Inc. Beijing) (mouse, UniProt Q8VE98 29-244, limits assumed); assay: ELISA, plate coated with 0.1 µg/mL murine B7-H3, HRP-labeled antibody, OD 450/620 nm
T4 construct: Bought protein coated on ELISA plates; also called mouse B7-H3 antigen; murine B7-H3 antigen
T4 sequence (looked up): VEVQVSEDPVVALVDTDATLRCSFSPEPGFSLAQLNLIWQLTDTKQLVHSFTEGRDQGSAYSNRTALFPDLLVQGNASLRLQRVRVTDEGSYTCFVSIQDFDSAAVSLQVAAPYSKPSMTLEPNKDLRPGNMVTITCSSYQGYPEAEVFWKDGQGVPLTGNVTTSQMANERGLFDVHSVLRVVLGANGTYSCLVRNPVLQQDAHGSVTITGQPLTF
Protocol: (§2) The cross-reactivity of the anti-B7-H3 murine monoclonal antibodies with mouse and Cynomolgus monkey B7-H3 antigens was detected in this example.
(§3) Specific experimental procedures are as follows: The plates were coated with 100 μL of 0.1 μg/mL Cynomolgus monkey B7-H3 and murine B7-H3 proteins (Sino Biological Inc. Beijing) at room temperature overnight. The coating solution was discarded, and the wells were blocked for 0.5 hours with skimmed milk dissolved in phosphate buffered saline (PBS) and washed with PBS containing 0.05% Tween-20. 50 μL of purified HRP-labeled B7-H3 monoclonal antibodies was added to each well and incubated at room temperature for 1 hour. The cells were washed five times with PBS containing 0.05% Tween-20, 100 μL of TMB was added to each well, and color development was performed at room temperature for 5 min. 50 μL of 2N H₂SO₄ was added to each well to stop the color development reaction. The values at 450 nm were measured by a microplate reader. The results were imported into Graph Prism to calculate EC₅₀ values.

[7] = target: T1, human B7-H3 on tumor cells (Hs578T, …); assay: flow cytometry, MFI titration on MDA-MB-468 cells
Protocol: as §1

[8] = target: T1, human B7-H3 on tumor cells (Hs578T, …); assay: flow cytometry, MFI titration on HT-29 cells
Protocol: as §1

[9] = target: T5, Cynomolgus monkey B7-H3 protein (Sino Biological Inc. Beijing) (Cynomolgus monkey); assay: ELISA, plate coated with 0.1 µg/mL Cynomolgus monkey B7-H3, HRP-labeled antibody, OD 450/620 nm
T5 construct: Bought protein coated on ELISA plates; also called monkey B7-H3 antigen
Protocol: as §2, §3

Kd [1]: 5.05 nM
Kd [2]: 0.227 nM
Kd [3]: 0.835 nM
Kd [4]: 0.273 nM
EC50 [5]: 6.69 ng/mL
Kd (His-labeled human B7-H3): 0.015 nM
koff (His-labeled human B7-H3): 3.09e-06 s⁻¹
kon (His-labeled human B7-H3): 207000 M⁻¹ s⁻¹
binding result [6]: no binding (tested: 10 µg/mL)
Kd [7]: 2.6 nM
Kd [8]: 1.25 nM
EC50 (read off the curve) [9]: ~6 ng/mL
B1: murine monoclonal antibody mAb152 (antibody, V domains shown)
VH: QVQLQQPGAELVRPGASVKLSCKASGYTFTAYWMNWVKQRPDQGLEWIGRIDPYDSETRYNQNFRDKARLTVDKSSSTAYMQLSSLTSEDSAVFYCARGVRIFDYWGQGTTLTVSS
VL: DIQMTQSPASLAASVGETVTITCRTSENIDYTLAWYQQKPGKSPQLLIYNANTLEDGVPSRFSGSGSGTHFSLKINSMQPEDTATYFCKQAYDVPRTFGGGTKLEIK

Kd [1]: 5.11 nM
Kd [2]: 0.204 nM
Kd [3]: 1.2 nM
Kd [4]: 0.239 nM
EC50 [5]: 6.16 ng/mL
Kd (His-labeled human B7-H3): < 0.001 nM
koff (His-labeled human B7-H3): < 1e-07 s⁻¹
kon (His-labeled human B7-H3): 220000 M⁻¹ s⁻¹
binding result [6]: no binding (tested: 10 µg/mL)
Kd [7]: 3.24 nM
Kd [8]: 2.35 nM
EC50 (read off the curve) [9]: ~5 ng/mL
B2: murine monoclonal antibody mAb272 (antibody, V domains shown)
VH: B1 VH
VL: B1 VL with H70L, S77N
